In patent publication EP4800033A1, “HUMANIZED ANTI-CKAP4 ANTIBODY OR ANTIGEN-BINDING FRAGMENT THEREOF” (The University of Osaka, priority 2023, dated 2025):
Positions count from the first letter of the chain named.

Key:
S2-CP8 cells = assay: Combination therapy assay, S2-CP8 xenograft tumors; format: in vivo, mice; details: single agent
Method: Hv1Lt1 antibody or control IgG (280 µg/dose) was intraperitoneally administered twice a week. Gemcitabine (100 µg/dose, once weekly) or nab-PTX (10 mg/kg, twice weekly) was intraperitoneally administered. While lenvatinib (1 mg/kg) or a 0.5% (wt/vol) methylcellulose 400 solution was orally administered once a day, 6 days per week, tumor formation was continued for an additional 21 days, after which the mice were euthanized. The volume and weight of the excised tumors were measured.

HeLa S3 cells = assay: Propidium iodide nuclear staining / apoptosis; format: cell-based, human
[1] = biological target: T1, human CKAP4 extracellular region (465-602 amino acids) (human, UniProt Q07065 465-602); assay: SPR (Biacore T200, 25 C), antibody captured on anti-mouse IgG CM5 chip, CKAP4 465-602 as analyte, 1:1 Langmuir fit
T1 construct: also called extracellular region of CKAP4; extracellular domain of CKAP4
T1 sequence: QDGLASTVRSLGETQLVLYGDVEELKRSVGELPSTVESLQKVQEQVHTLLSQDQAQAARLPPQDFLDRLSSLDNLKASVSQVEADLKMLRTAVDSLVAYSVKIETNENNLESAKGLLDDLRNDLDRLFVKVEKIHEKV

[2] = biological target: T1, human CKAP4 extracellular region …; assay: SPR (Biacore T200, 25 C), antibody captured on anti-human IgG CM5 chip, CKAP4 465-602 as analyte, 1:1 Langmuir fit
[3] = biological target: T2, CKAP4 in lysates of mouse lung cancer cells Lewis Lung Carcinoma (LLC) (mouse, UniProt Q8BMK4 1-575); assay: blot of LLC cell lysate
T2 construct: also called mouse CKAP4; endogenous CKAP4 (mouse tissues)
T2 sequence (looked up): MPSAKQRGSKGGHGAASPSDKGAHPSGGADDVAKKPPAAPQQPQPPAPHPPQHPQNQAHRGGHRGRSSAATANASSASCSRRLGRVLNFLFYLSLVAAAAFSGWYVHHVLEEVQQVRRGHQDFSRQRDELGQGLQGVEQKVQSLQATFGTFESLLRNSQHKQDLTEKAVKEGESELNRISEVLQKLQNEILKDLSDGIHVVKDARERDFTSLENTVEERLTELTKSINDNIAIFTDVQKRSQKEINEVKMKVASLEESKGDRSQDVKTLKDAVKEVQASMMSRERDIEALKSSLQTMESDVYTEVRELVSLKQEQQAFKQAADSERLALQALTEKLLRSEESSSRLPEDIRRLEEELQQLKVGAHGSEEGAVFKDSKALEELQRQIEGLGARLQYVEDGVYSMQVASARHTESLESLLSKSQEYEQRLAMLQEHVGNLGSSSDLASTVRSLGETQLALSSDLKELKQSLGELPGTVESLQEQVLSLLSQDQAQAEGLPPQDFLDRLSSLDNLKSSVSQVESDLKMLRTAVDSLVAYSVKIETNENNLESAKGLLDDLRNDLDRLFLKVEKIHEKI

Nc1ccn([C@@H]2O[C@H](CO)[C@@H](O)C2(F)F)c(=O)n1 [gemcitabine]
antitumor effects in vivo as single agents (S2-CP8 cells): antitumor effects

CN[C@@H]1C[C@H]2O[C@@](C)([C@@H]1OC)n1c3ccccc3c3c4c(c5c6ccccc6n2c5c31)C(=O)NC4 [staurosporine]
nuclear staining with propidium iodide (HeLa S3 cells): strongly stained

B1: Mouse anti-CKAP4 antibody 3F11-2B10 (antibody, V domains shown)
VH: VQLQQQPGTELVKPGASVKLSCKASGFTFTSYWMHWVKQRPGQGLEWIGNINPSNGGTNYNAKFKSKATLTVDKSSSTAYMQLSSLTSEDSAVYYCARWVSFSYRGAMDYWGQGTSVTVSS
VL: DIVLTQSPAILSVTPGDGVSLSCRASRAIRNNLHWFQQKSHESPRLLIKYVSQSISGIPSRFSGSGSGTDFTLSVDSVETEDFGVYFCQQSDSWPYTFGGGTKLEIK
notes: Mouse monoclonal antibody; also called Mouse antibody 3F11-2B10; original mouse anti-CKAP4 antibody
Kd [1]: 14.5 nM | koff [1]: 0.0018 s⁻¹ | kon [1]: 125000 M⁻¹ s⁻¹

B2: Humanized anti-CKAP4 antibody Hv1Lt1 (antibody, human IgG1, V domains shown)
VH: QVQLVQSGAEVKKPGASVKVSCKASGFTFTSYWMHWVRQAPGQGLEWIGNINPSNGGTNYNAKFKSRVTMTRDTSTSTVYMELSSLRSEDTAVYYCARWVSFSYRGAMDYWGQGTLVTVSS
VL: EIVLTQSPDFQSVTPKEKVTITCRASRAIRNNLHWYQQKPDQSPKLLIKYVSQSISGVPSRFSGSGSGTDFTLTINSLEAEDAATYYCQQSDSWPYTFGQGTKLEIK
notes: also called HvlLtl; Humanized antibody Hv1Lt1
Kd [2]: 0.761 nM | koff [2]: 1.14e-05 s⁻¹ | kon [2]: 15000 M⁻¹ s⁻¹

B3: Humanized anti-CKAP4 antibody Hv2Lt1 (antibody, human IgG1, V domains shown)
VH: B2 VH with F27Y, I48M, N50I, N59S, N61A, A62Q, K65Q, S66G
VL: B2 VL
notes: also called Hv2Ltl; Humanized antibody Hv2Ltl
Kd [2]: 0.0449 nM | koff [2]: 1.7e-06 s⁻¹ | kon [2]: 37900 M⁻¹ s⁻¹ | binding result [3]: binds
